Values of other authors, collected in PMC9986639.

Target: PAPR (Escherichia coli) (UniProt P17854)
Sequence (P17854 2-244): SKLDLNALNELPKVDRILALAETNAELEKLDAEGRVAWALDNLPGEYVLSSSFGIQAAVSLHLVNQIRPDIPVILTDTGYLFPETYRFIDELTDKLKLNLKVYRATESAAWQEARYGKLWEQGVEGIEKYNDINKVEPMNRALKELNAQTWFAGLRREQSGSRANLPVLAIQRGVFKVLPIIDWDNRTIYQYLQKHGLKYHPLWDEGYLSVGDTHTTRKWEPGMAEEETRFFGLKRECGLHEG

Sequence of Trx1 (P0AA25 2-109): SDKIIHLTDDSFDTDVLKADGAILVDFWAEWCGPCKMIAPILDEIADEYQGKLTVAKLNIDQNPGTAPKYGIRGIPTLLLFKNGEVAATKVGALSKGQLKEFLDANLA

- Kd: 110 µM
Substance: Trx1 (from UniProt P0AA25)
